Drawing on article PMC9050887 (2023), this text covers Kd for one molecule.

This experiment has as its target T1, GSDMD (Mus musculus, UniProt Q9D8T2).
T1 chain: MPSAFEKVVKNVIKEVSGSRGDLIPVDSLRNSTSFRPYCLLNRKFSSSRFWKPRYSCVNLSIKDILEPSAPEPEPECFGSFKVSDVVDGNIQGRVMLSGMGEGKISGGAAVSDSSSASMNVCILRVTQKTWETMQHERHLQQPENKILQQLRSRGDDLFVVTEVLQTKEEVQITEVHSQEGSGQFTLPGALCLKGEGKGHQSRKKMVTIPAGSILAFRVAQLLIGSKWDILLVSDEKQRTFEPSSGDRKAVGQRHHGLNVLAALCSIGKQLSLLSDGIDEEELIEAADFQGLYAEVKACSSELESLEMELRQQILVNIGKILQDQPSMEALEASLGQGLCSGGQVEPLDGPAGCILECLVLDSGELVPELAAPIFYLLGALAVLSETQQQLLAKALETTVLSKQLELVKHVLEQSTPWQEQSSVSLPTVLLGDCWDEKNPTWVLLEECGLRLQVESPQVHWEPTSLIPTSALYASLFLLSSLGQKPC
The experiment can be described thus: SPR. A general note: Surface plasmon resonance follows binding to a sensor surface in real time, without labels.

B1: CIRP (protein)
chain: MASDEGKLFVGGLSFDTNEQALEQVFSKYGQISEVVVVKDRETQRSRGFGFVTFENIDDAKDAMMAMNGKSVDGRQIRVDQAGKSSDNRSRGYRGGSAGGRGFFRGGRSRGRGFSRGGGDRGYGGGRFESRSGGYGGSRDYYASRSQGGSYGYRSSGGSYRDSYDSYATHNE
B1 showed an equilibrium dissociation constant (Kd) of 0.487 µM.

As usually defined, the Kd is the constant that tells how readily two partners part at equilibrium. A low value points to higher affinity.
